Molecular target: cation-independent mannose-6-phosphate receptor (CIMPR)
Experiment: CIMPR affinity chromatography with M6P elution gradient; spent cell culture medium before AEX product capture

percent able to bind to the CIMPR: 80%
Substance: recombinant human α-galactosidase A (rhα-Gal A) (from UniProt P06280 32-429) (enzyme)
